{"source": "patent US20140295512A1", "about": "“Ketol-Acid Reductoisomerases With Improved Performance Properties” (CALIFORNIA INSTITUTE OF TECHNOLOGY, priority 2011, published 2014)", "key": {"[1]": {"test": "KARI assay of purified S. exigua KARI and variants with NADH (Examples 6-9)", "format": "biochemical", "details": "for U/mg NADH (specific activity): cofactor NADH; for Ratio NADH/NADPH (U/mg): specific activity ratio", "experimental": "(§1) S. exigua KARI activity or activities of its variants were assayed kinetically by monitoring the decrease in NADPH or NADH concentration by measuring the change in absorbance at 340 nm. An assay buffer was prepared containing 100 mM potassium phosphate pH 7.0, 1 mM DTT, 2.5 mM (S)-2-acetolactate, and 10 mM MgCl2 (final concentrations in the 1-mL assay, accounting for dilution with enzyme and cofactor). Fifty μL purified enzyme and 930 μL of the assay buffer were placed into a 1-mL cuvette. The reaction was initiated by addition of 20 μL NADPH or NADH (200 μM final concentration) for a general activity assay. Michaelis-Menten constants of the cofactors were determined with varying concentrations of NADPH (200-12 μM final) or NADH (200-6 μM final)."}, "[2]": {"test": "KARI assay of purified S. exigua KARI and variants with NADPH (Examples 6-9)", "format": "biochemical", "details": "for U/mg NADPH (specific activity): cofactor NADPH", "experimental": "as §1"}}}
{"molecule": "Se1_KARI^14B7: S. exigua KARI variant Y35H, S63D, I95V (protein, UniProt D0WGK0 1-342, looked up, variant Y35H S63D I95V) Ketol-acid reductoisomerase …: MSVKTKEKEMAVTILYEQDVDPKVIQGLKVGIIGHGSQGHAHALNLMDSGVDVRVGLREGSSDWKTAEEAGLKVTDMDTAAEEADVIMVLVPDEVQPKVYQEHIAAHLKAGNTLAFAHGFNIHYGYIVPPEDVNVIMCAPKGPGHIVRRQFTEGSGVPDLACVQQDATGNAWDIVLSYCWGVGGARSGIIKATFAEETEEDLFGEQAVLCGGLVELVKAGFETLTEAGYPPELAYFECYHEMKMIVDLMYESGIHFMNYSISNTAEYGEYYAGPKVINEQSREAMKEILKRIQDGSFAQEFVDDCNNGHKRLLEQREAINTHPIETTGAQIRSMFSWIKKED", "values": [{"measurement": "kcat NADH", "setting": "[1]", "value": 0.45, "unit": "s⁻¹"}, {"measurement": "U/mg NADH (specific activity)", "setting": "[1]", "value": 0.18, "unit": "U/mg"}, {"measurement": "Ratio NADH/NADPH (U/mg)", "setting": "[1]", "value": 0.32}, {"measurement": "kcat NADPH", "setting": "[2]", "value": 1.4, "unit": "s⁻¹"}, {"measurement": "U/mg NADPH (specific activity)", "setting": "[2]", "value": 0.56, "unit": "U/mg"}]}
{"molecule": "Se1_KARI^1H1: S. exigua KARI variant R58P, S61C (protein, UniProt D0WGK0 1-342, looked up, variant R58P S61C) Ketol-acid reductoisomerase …: MSVKTKEKEMAVTILYEQDVDPKVIQGLKVGIIGYGSQGHAHALNLMDSGVDVRVGLPEGCSSWKTAEEAGLKVTDMDTAAEEADVIMVLVPDEIQPKVYQEHIAAHLKAGNTLAFAHGFNIHYGYIVPPEDVNVIMCAPKGPGHIVRRQFTEGSGVPDLACVQQDATGNAWDIVLSYCWGVGGARSGIIKATFAEETEEDLFGEQAVLCGGLVELVKAGFETLTEAGYPPELAYFECYHEMKMIVDLMYESGIHFMNYSISNTAEYGEYYAGPKVINEQSREAMKEILKRIQDGSFAQEFVDDCNNGHKRLLEQREAINTHPIETTGAQIRSMFSWIKKED", "values": [{"measurement": "kcat NADH", "setting": "[1]", "value": 0.50, "unit": "s⁻¹"}, {"measurement": "U/mg NADH (specific activity)", "setting": "[1]", "value": 0.20, "unit": "U/mg"}, {"measurement": "Ratio NADH/NADPH (U/mg)", "setting": "[1]", "value": 0.8}, {"measurement": "kcat NADPH", "setting": "[2]", "value": 0.65, "unit": "s⁻¹"}, {"measurement": "U/mg NADPH (specific activity)", "setting": "[2]", "value": 0.26, "unit": "U/mg"}]}
{"molecule": "Se1_KARI^2C6: S. exigua KARI variant L57V, R58P (protein, UniProt D0WGK0 1-342, looked up, variant L57V R58P) Ketol-acid reductoisomerase …: MSVKTKEKEMAVTILYEQDVDPKVIQGLKVGIIGYGSQGHAHALNLMDSGVDVRVGVPEGSSSWKTAEEAGLKVTDMDTAAEEADVIMVLVPDEIQPKVYQEHIAAHLKAGNTLAFAHGFNIHYGYIVPPEDVNVIMCAPKGPGHIVRRQFTEGSGVPDLACVQQDATGNAWDIVLSYCWGVGGARSGIIKATFAEETEEDLFGEQAVLCGGLVELVKAGFETLTEAGYPPELAYFECYHEMKMIVDLMYESGIHFMNYSISNTAEYGEYYAGPKVINEQSREAMKEILKRIQDGSFAQEFVDDCNNGHKRLLEQREAINTHPIETTGAQIRSMFSWIKKED", "values": [{"measurement": "kcat NADH", "setting": "[1]", "value": 0.55, "unit": "s⁻¹"}, {"measurement": "U/mg NADH (specific activity)", "setting": "[1]", "value": 0.22, "unit": "U/mg"}, {"measurement": "Ratio NADH/NADPH (U/mg)", "setting": "[1]", "value": 0.7}, {"measurement": "kcat NADPH", "setting": "[2]", "value": 0.80, "unit": "s⁻¹"}, {"measurement": "U/mg NADPH (specific activity)", "setting": "[2]", "value": 0.33, "unit": "U/mg"}]}
{"molecule": "Se1_KARI^AC1: S. exigua KARI variant S63D, I95A (protein, UniProt D0WGK0 1-342, looked up, variant S63D I95A) Ketol-acid reductoisomerase …: MSVKTKEKEMAVTILYEQDVDPKVIQGLKVGIIGYGSQGHAHALNLMDSGVDVRVGLREGSSDWKTAEEAGLKVTDMDTAAEEADVIMVLVPDEAQPKVYQEHIAAHLKAGNTLAFAHGFNIHYGYIVPPEDVNVIMCAPKGPGHIVRRQFTEGSGVPDLACVQQDATGNAWDIVLSYCWGVGGARSGIIKATFAEETEEDLFGEQAVLCGGLVELVKAGFETLTEAGYPPELAYFECYHEMKMIVDLMYESGIHFMNYSISNTAEYGEYYAGPKVINEQSREAMKEILKRIQDGSFAQEFVDDCNNGHKRLLEQREAINTHPIETTGAQIRSMFSWIKKED", "values": [{"measurement": "kcat NADH", "setting": "[1]", "value": 0.5, "unit": "s⁻¹"}, {"measurement": "kcat/Km ratio NADH/NADPH (cofactor specificity)", "setting": "[1]", "value": 0.3}, {"measurement": "U/mg NADH (specific activity)", "setting": "[1]", "value": 0.2, "unit": "U/mg"}, {"measurement": "Km", "setting": "[1]; read-out: Km for cofactor NADH", "value": 68, "unit": "µM"}, {"measurement": "Ratio NADH/NADPH (U/mg)", "setting": "[1]", "value": 0.5}, {"measurement": "kcat NADPH", "setting": "[2]", "value": 1, "unit": "s⁻¹"}, {"measurement": "U/mg NADPH (specific activity)", "setting": "[2]", "value": 0.4, "unit": "U/mg"}, {"measurement": "Km", "setting": "[2]; read-out: Km for cofactor NADPH", "value": 45, "unit": "µM"}]}
